Laboratory results taken from US20120039802A1 (published 2012).
Ends that are not written are not given here.

Assays:
[1] = biological target: T1, human cMet expressed on 3T3 cells (human, UniProt P08581 25-1390); experiment: whole cell phage ELISA, 3T3 human cMet vs 3T3
T1 construct: whole, on cells; cells fixed with glutaraldehyde; also called cell surface-expressed human cMet; 3T3 cells that over-express human cMet
Description: Whole cell ELISAs were performed using 3T3 cells that over-express human cMet. […] Briefly, 96-well plates were seeded with 10⁵ cells per well. The plates were centrifuged for 5 minutes at 1600 rpm to pellet the cells. The resulting cell layer was fixed with 0.1% (v/v) glutaraldehyde for 12 minutes at 37 C. […] Peptide-displaying phage also were blocked in the above solution for 1 hour at 37 C. 100 μL of blocked phage was then added to each well and the plates were incubated for 1 hour at room temperature. The plates were washed with PBST. cMet-binding peptide-displaying phage were detected using an HRP-conjugated anti-M13 antibody.

[2] = biological target: T2, cMet-Fc fusion protein (extracellular domain of the cMet receptor expressed as an Fc-fusion protein) (human, UniProt P08581 25-932); experiment: phage ELISA, cMet-Fc vs TRAIL-Fc
T2 construct: extracellular domain; also called soluble cMet-Fc-fusion protein; soluble cMet receptor; not shown: Fc part
T2 sequence (P08581 25-932): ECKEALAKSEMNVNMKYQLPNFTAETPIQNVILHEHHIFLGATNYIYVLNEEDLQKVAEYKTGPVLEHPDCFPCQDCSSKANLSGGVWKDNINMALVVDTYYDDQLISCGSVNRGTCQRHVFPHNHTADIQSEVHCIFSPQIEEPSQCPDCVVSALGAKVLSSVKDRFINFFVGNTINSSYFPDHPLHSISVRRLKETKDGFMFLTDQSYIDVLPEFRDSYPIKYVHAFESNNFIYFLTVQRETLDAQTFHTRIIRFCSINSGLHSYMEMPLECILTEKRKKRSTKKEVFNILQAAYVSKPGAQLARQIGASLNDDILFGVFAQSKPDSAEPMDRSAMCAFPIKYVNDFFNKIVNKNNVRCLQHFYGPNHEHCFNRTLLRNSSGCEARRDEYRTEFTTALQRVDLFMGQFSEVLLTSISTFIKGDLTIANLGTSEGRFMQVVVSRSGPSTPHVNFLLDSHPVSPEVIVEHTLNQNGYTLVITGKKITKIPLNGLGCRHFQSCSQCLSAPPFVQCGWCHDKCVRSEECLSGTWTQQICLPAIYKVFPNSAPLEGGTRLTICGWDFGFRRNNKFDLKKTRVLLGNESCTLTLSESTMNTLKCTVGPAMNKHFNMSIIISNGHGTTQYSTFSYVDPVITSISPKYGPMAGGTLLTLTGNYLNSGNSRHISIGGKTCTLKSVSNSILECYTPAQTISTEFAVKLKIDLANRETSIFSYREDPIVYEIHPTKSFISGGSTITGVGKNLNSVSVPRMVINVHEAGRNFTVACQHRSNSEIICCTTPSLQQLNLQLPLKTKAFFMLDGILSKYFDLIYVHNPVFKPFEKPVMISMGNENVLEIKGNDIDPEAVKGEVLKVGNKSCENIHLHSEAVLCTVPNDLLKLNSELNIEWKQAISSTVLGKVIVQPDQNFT
Description: Protein phage ELISAs using peptide-displaying phage isolates from the various selection campaigns were performed to determine specificity of the peptides for cMet versus an unrelated Fc-fusion protein (TRAIL-Fe). Briefly, 384-well plates were coated overnight at 4 C with 0.5 μg/mL of cMet-Fc fusion protein or TRAIL-Fc fusion protein (background). The plates were blocked for 2 hours 37 C with 3% (w/v) BSA in PBS containing 0.05% (v/v) Tween-20 (PBST). The plates were washed with PBST and 100 μL of peptide-displaying phage were added to each well. The plates were incubated for 2 hours at room temperature and washed with PBST. cMet-binding peptide-displaying phage were detected using an HRP-conjugated anti-M13 antibody.

[3] = biological target: T2, cMet-Fc fusion protein (extracellular …); experiment: phage ELISA on cMet-Fc, competitor HGF 500 ng/mL
Description: (§1) These assays were conducted using the peptide-displaying phage discovered from the initial selection and screening campaigns using the first generation peptide libraries. Briefly, 96-well plates were coated overnight at 4 C with 0.5 μg/mL of cMet-Fc fusion protein or TRAIL-Fc fusion protein (background). The plates were blocked for 2 hours at 37 C with 3% BSA in PBST. […] This was followed by an addition of 30 μL of peptide-displaying phage overnight culture to each well. The plates were incubated for 2 hours at room temperature, washed with PBST and cMet-binding peptide-displaying phage was detected using an HRP-conjugated anti-M13 antibody.

[4] = biological target: T2, cMet-Fc fusion protein (extracellular …); experiment: phage ELISA on cMet-Fc, competitor HGF 100 ng/mL
Description: as §1

T1 sequence (P08581 25-1390): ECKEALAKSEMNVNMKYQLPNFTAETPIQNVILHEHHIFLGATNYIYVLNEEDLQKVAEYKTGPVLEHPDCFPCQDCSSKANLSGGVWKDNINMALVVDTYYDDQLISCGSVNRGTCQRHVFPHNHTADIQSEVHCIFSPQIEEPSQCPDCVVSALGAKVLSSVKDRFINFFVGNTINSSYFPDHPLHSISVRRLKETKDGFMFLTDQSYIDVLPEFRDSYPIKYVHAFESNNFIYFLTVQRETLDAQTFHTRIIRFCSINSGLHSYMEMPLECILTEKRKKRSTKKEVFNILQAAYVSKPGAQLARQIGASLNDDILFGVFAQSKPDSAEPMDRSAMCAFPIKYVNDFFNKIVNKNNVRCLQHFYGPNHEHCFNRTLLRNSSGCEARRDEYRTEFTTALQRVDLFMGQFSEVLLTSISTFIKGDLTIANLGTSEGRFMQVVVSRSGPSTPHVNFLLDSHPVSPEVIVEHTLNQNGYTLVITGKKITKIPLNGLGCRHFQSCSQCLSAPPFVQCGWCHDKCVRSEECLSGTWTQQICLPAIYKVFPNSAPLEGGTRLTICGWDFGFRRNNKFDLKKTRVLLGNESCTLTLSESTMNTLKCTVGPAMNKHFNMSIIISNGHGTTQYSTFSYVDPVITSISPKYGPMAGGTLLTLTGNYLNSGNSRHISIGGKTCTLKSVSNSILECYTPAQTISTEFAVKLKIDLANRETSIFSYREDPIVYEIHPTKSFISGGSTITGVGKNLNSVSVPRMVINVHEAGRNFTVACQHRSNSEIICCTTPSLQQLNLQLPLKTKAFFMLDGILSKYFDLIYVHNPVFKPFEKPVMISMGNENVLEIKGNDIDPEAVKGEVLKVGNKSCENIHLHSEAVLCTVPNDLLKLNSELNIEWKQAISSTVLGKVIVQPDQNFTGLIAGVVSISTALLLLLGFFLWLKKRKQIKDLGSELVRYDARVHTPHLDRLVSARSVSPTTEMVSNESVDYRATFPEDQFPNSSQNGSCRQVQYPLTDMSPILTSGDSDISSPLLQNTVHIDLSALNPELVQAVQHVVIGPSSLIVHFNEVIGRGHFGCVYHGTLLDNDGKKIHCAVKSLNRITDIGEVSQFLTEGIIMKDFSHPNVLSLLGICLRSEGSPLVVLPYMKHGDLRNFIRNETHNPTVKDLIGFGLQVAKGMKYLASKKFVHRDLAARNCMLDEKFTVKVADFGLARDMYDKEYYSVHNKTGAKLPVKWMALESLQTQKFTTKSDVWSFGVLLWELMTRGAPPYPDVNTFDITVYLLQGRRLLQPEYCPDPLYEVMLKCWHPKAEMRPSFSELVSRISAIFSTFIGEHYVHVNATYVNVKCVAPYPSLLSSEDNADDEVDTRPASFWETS

Binder | WC ELISA (fold over background) [1] [fold] | Protein ELISA (fold over background) [2] [fold] | % of binding in the absence of HGF [3] [%] | % of binding in the absence of HGF [4] [%]
AGSTDCRGHPTFECWGWGT [549-F06 peptide-displaying phage (SEQ ID NO: 086)] | 1.3 | 5.2 | 40 | 96
AGYWDCKGPPHFFCEWHGT [552-G11 peptide-displaying phage (SEQ ID NO: 080)] | 1.23 | 7.4 | 41 | 55
AGSSPCKGWPTFECYFYGT [552-F01 peptide-displaying phage (SEQ ID NO: 087)] | 1.3 | 4.8 | 37 | 56
AGSYWCSGPPTFMCRYEGT [545-B12 peptide-displaying phage (SEQ ID NO: 085)] | 1.27 | 17.1 | 42 | 51
AGYWSCAGPPMFMCTWQGT [552-G03 peptide-displaying phage (SEQ ID NO: 079)] | 1.27 | 10.7 | 83 | 101
AGVNSCLGPPTFECYQMGT [332-C03 peptide-displaying phage (SEQ ID NO: 076)] | 1.2 | 5.7 | 95 | 37
AGYFHCSGSPWFQCDYYGT [550-G08 peptide-displaying phage (SEQ ID NO: 081)] | 1.4 | 9.1 | 58 | 79
AGPWKCTGPPTFSCIQFGT [548-D08 peptide-displaying phage (SEQ ID NO: 090)] | 1.23 | 19.5 | 62 | 97
GSFAPCGWPSFAIDCIAEAP [545-C11 peptide-displaying phage (SEQ ID NO: 367)] | 1.3 | 7.7 | 50 | 77
AGETFCSGWPTFECMQWGT [547-H03 peptide-displaying phage (SEQ ID NO: 095)] | 1.23 | 16.2 | 53 | 109
AGWGWCSGPPMFMCTEYGT [551-A05 peptide-displaying phage (SEQ ID NO: 099)] | 1.3 | 4 | 42 | 68
AGSIACTGWPYFSCIDLGT [547-H12 peptide-displaying phage (SEQ ID NO: 088)] | 1.1 | 5.6 | 81 | 92
GSLIICWWSWCDKQAP [567-C08 peptide-displaying phage (SEQ ID NO: 009)] | 1.27 | 3.8 | 94 | 85
GSEFECTGWPEFRCYEYAP [548-C10 peptide-displaying phage (SEQ ID NO: 100)] | 1.2 | 8.4 | 57 | 69
AGDFICQGPPSFVCTNIGT [550-A08 peptide-displaying phage (SEQ ID NO: 097)] | 1.27 | 8.4 | 51 | 52
AGQFYCSGPPTFQCIMIGT (not fully specified (bridges); cysteine pairing not given here) [550-F11 peptide-displaying phage (SEQ ID NO: 089)] | 1.23 | 12.4 | 23 | 58
AGETKCSGPPYFYCWMEGT [545-E04 peptide-displaying phage (SEQ ID NO: 093)] | 1.23 | 16.3 | 17 | 48
AGMTLCAGPPTFECYEVGT [552-F02 peptide-displaying phage (SEQ ID NO: 092)] | 1.23 | 12.3 | 40 | 60
AGAFFCSGPPTFMCSLYGT [550-G07 peptide-displaying phage (SEQ ID NO: 098)] | 1.27 | 6.2 | 36 | 63
AGWSDCLGPPQFTCVHWGT [552-A01 peptide-displaying phage (SEQ ID NO: 083)] | 1.33 | 3.9 | 81 | 76
AGETFCVGNPSFECWSWGT [545-E05 peptide-displaying phage (SEQ ID NO: 094)] | 1.27 | 10.3 | 32 | 70
AGTMYCLGPPTFICQQYGT [548-C06 peptide-displaying phage (SEQ ID NO: 084)] | 1.23 | 13 | 77 | 94
GSTKVCHEKWNQLFCHNQAP [549-G01 peptide-displaying phage (SEQ ID NO: 368)] | 1.27 | 7 | 18 | 62
GSSTICPGTACVDHAP [574-H03 peptide-displaying phage (SEQ ID NO: 008)] | 1.27 | 3.2 | 18 | 88
GSFNICPYQWCTLWAP [561-C08 peptide-displaying phage (SEQ ID NO: 010)] | 1.37 | 3 | 96 | 92
AGYWHCKGPPHFACEFHGT [331-D03 peptide-displaying phage (SEQ ID NO: 077)] | 1.4 | 5.5 | 55 | 64
AGEIFCVGPPTFTCMWTGT [552-G09 peptide-displaying phage (SEQ ID NO: 096)] | 1.27 | 9.7 | 68 | 98
AGNYWCSGPPSFICHAVGT [549-D02 peptide-displaying phage (SEQ ID NO: 091)] | 1.27 | 8.9 | 36 | 47
AGNWICTGPPSFGCWYHGT [331-G06 peptide-displaying phage (SEQ ID NO: 078)] | 1.4 | 4.7 | 51 | 59
GSILYCINRNDPQCPYTAP [465-C10 peptide-displaying phage (SEQ ID NO: 101)] | 1.27 | 3 | 71 | 95
